Measurements published in patent US6866854 (TRUSTEES OF COLUMBIA UNIVERSITY IN THE CITY OF NEW YORK, dated 2005).

Target: T1, LANA2 fused to GAL4-AD (plasmid pGAD424) (Kaposi's sarcoma-associated herpesvirus …, UniProt F5HIC6 1-566)
T1 sequence: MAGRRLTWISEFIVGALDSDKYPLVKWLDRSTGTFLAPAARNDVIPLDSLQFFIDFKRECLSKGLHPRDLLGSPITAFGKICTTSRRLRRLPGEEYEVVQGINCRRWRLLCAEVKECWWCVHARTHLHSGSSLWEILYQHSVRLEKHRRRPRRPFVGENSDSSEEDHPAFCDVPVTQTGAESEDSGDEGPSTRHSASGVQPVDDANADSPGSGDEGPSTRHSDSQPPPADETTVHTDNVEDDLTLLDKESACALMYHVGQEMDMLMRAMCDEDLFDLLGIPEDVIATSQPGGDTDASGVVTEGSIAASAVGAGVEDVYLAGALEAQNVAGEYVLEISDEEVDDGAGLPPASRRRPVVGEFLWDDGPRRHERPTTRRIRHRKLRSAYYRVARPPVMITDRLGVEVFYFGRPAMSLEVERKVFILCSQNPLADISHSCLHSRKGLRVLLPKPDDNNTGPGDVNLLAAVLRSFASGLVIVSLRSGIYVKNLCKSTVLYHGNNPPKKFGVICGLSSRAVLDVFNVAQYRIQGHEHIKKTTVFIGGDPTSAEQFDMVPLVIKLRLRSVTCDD
Assay: yeast two-hybrid assay, strain Y-190, b-galactosidase

B1: murine p53 fused to GAL4 DNA-binding domain (DNA-BD/murine p53 fusion protein PVA3) (other)
chain: MKLLSSIEQACDICRLKKLKCSKEKPKCAKCLKNNWECRYSPKTKRSPLTRAHLTEVESRLERLEQLFLLIFPREDLDMILKMDSLQDIKALLTGLFVQDNVNKDAVTDRLASVETDMPLTLRQHRISATSSSEESSNKGQRQLTVSPVTETPGPVAPAPATPWPLSSFVPSQKTYQGNYGFHLGFLQSGTAKSVMCTYSPPLNKLFCQLAKTCPVQLWVSATPPAGSRVRAMAIYKKSQHMTEVVRRCPHHERCSDGDGLAPPQHLIRVEGNLYPEYLEDRQTFRHSVVVPYEPPEAGSEYTTIHYKYMCNSSCMGGMNRRPILTIITLEDSSGNLLGRDSFEVRVCACPGRDRRTEEENFRKKEVLCPELPPGSAKRALPTCTSASPPQKKKPLDGEYFTLKIRGRKRFEMFRELNEALELKDAHATEESGDSRAHSSYLKTKKGQSTSRHKKTMVKKVGPDSD
notes: also called p53 into the Gal4-BD cassette
binding result: no binding
